# Results published in US20030236190A1 (published 2003).
# Positions of bridges follow the written chain, without caps; N, C: chain ends. No end group written: not given here.
# B1: H2CA-4-F11-IGFR (peptide)
# peptide: SAAQLFFQESFYDWFLRQVAESSQPN
# B2: B6Hα-3-F7-IR (peptide)
# peptide: SRVAATKEKRPSDDPFYHKLSELLQGS
# B3: H2CA-4-F5-IGFR (peptide)
# peptide: VGYQGQGDENFYDWFIRQVSGRLGVQ
# B4: 20E2A-3-D10-IGFR (peptide)
# peptide: MMVVDGFYDALHQLVVAQSLG
# B5: 26Hα-3-E8-IR (peptide)
# peptide: RGKTAAVIVGRPADPFYHKLSELLQGG
# B6: B6Hα-2-D6-IR (peptide)
# peptide: GRTMAVMAAGGPDDPFYHKLSELVQGG
# B7: B6Hα-2-D1-IR (peptide)
# peptide: GCEVIVEEGDSADPFYHKLSELCQGS
# modifications: disulfide 2-23 (inferred)
# B8: B6Hα-3-F10-IR (peptide)
# peptide: GCVVEWQKWHGASDPFYHKLSELGGCS
# modifications: disulfide 2-26 (inferred)
# B9: B6Hα-1-A3-IR (peptide)
# peptide: SRAKVEAEMPDSGDPFYHKLSELLASG
# B10: A6L-0-E6-IR (peptide)
# peptide: YRGMLVLGRSSDGAGKVAFERPARIGQTVFAVNFYDWFV
# B11: B6L-4-D7-IR (peptide)
# peptide: AETSVQVGWIRLQSVWPGEHWNTVDPFYHKLSELLRGSGA
# B12: B6Hα-3-E7-IR (peptide)
# peptide: GCAVVEEAERSRGDPFYHKLSELIQGC
# modifications: disulfide 2-27 (inferred)
# B13: H6Hα-4-G8-IR (peptide)
# peptide: GGTKAVAKVGTRDDPFYHKLSELLQGS
# B14: H2CA-4-H8-IGFR (peptide)
# peptide: SACQFDCHENFYDWFARQVSGGAAYG
# modifications: not fully specified (bridges); cysteine pairing not given here
# B15: H2CA-4-G9-IGFR (peptide)
# peptide: GIISQSCPESFYDWFAGQVSDPWWCW
# B16: H2CA-4-H6-IGFR (peptide)
# peptide: VGRASGFPENFYDWFGRQLSLQSGEQ
# B17: 20E2A-3-A12-IGFR (peptide)
# peptide: LSVALSFYDALGQLVAGEGRW
# B18: RB625 (peptide)
# peptide: MADYKDDDDKWLDQEWAWVQCEVYGRGCPSQPPPPDITTHRADPQGSLDESFYDWFERQLGKKAAAGAPVPYPDPLEPRPG
# notes: Recombinant F6-F1 dimer peptide with tags at both ends
# B19: RB538 (peptide)
# peptide: MADYKDDDDKGSLDESFYDWFERQLGKKGGSGGSGGSGGSWLDQEWAWVQCEVYGRGCPSAAAGAPVPYPDPLEPRPG
# notes: Recombinant F1-F6 (Site 1-Site 2) dimer peptide with tags at both ends
# B20: RB509 (peptide)
# peptide: DYKDDDDKVRVDWLQRNANFYAWFVAELGGGSGGSGGSGGSGRVDWLQRNANFYDWFVAELGAAAGAPVPYPDPLEPRAA
# B21: RB437 (other, not shown: large carriers)
# chain: NNNNLGIEGRISEFIEGRAQPAMAFHENFYDWFVRQVSAAAGAPVPYPDPLEPRAA
# notes: MBP fusion, uncleaved
# B22: RB517 (peptide)
# peptide: DYKDDDDKHLCVLEELFWGASLFGYCSGGGSGGSHLCVLEELFWGASLFGYCSGAAAGAPVPYPDPLEPRAA
# B23: RB539 (peptide)
# peptide: MADYKDDDDKWLDQEWAWVQCEVYGRGCPSGGSGGSGSLDESFYDWFERQLGKKAAAGAPVPYPDPLEPRPG
# notes: Recombinant F6-F1 (Site 2-Site 1) dimer peptide with tags at both ends
# B24: RB626 (peptide)
# peptide: MADYKDEIEAEWGRVRCLVYGRCVGGGGSGGSGGSGGSGSLDESFYDWFERQLGKKAAAGAPVPYPDPLEPRPG
# notes: as for B18
# B25: RB435 (other, not shown: large carriers)
# chain: NNNNLGIEGRISEFIEGRAQPAMAFHENFYDWFVRQVSGGSFHENFYDWFVRQVSGGSFHENFYDWFVRQVSAAAGAPVPYPDPLEPRAA
# notes: MBP fusion, uncleaved
# B26: RB508 (peptide)
# peptide: DYKDDDDKVRVDWLQRNANFYDWFVAELGGGSGGSGRVDWLQRNANFYDWFVAELGAAAGAPVPYPDPLEPRSA
# B27: RB535 (peptide)
# peptide: MADYKDDDDKGSLDESFYDWFERQLGKKGGSGGSGGSGGSGSLDESFYDWFERQLGKKAAAGAPVPYPDPLEPRPG
# notes: Recombinant F1-F1 dimer peptide with tags at both ends
# B28: RB570 (peptide)
# peptide: MQNDDGSLDESFYDWFERQLGEEEGGDHHHHHHPG
# notes: F1 monomer with a His tag
# B29: RB436 (other, not shown: large carriers)
# chain: NNNNLGIEGRISEFIEGRAQPAMAFHENFYDWFVRQVSGGSGGSGGSFHENFYDWFVRQVSAAAGAPVPYPDPLEPRAA
# notes: MBP fusion, uncleaved
# B30: RB537 (peptide)
# peptide: MADYKDDDDKGSLDESFYDWFERQLGKKGGSGGSWLDQEWAWVQCEVYGRGCPSAAAGAPVPYPDPLEPRPG
# notes: as for B19
# B31: RB569 (peptide)
# peptide: MGSLDESFYDWFERQLGEEEGGDHHHHHHPG
# notes: F1 monomer with a His tag
# B32: RB521 (peptide)
# peptide: MADYKDDDDKGSLDESFYDWFERQLGKKGGSGGSGSLDESFYDWFERQLGKKAAAGAPVPYPDPLEPRPG
# notes: as for B27
# B33: RB463 (other, not shown: large carriers)
# chain: NNNNLGIEGRISEFIEGRAQPAMAFHENFYDWFVRQVSGGSFHENFYDWFVRQVSAAAGAPVPYPDPLEPRAA
# notes: MBP fusion, uncleaved
# B34: RB596 (peptide)
# peptide: MQNDDGSLDESFYDWFERQLGHHHHHHPG
# notes: F1 monomer with a His tag
# B35: RB622 (peptide)
# peptide: MADYKDDDDKWLDQEWAWVQCEVYGRGCPSTPKPPTPPPLSADGSLDESFYDWFERQLGKKAAAGAPVPYPDPLEPRPG
# notes: as for B18
# B36: RB540 (peptide)
# peptide: MADYKDDDDKWLDQEWAWVQCEVYGRGCPSAAAGAPVPYPDPLEPRPG
# notes: Recombinant F6 monomer peptide with tags at both ends
# Molecular target: T1, Insulin receptor prepared according to Bass et al., 1996: soluble human insulin receptor-immunoglobulin heavy … (human, UniProt P06213 28-956)
# T1 construct: extracellular domain; Eu3+-labelled in TR-FRET; also called IR; sIR-Fc; not shown: immunoglobulin heavy chain constant domains that replace the transmembrane and i
# Experiment: phage ELISA vs milk
row,Binder,Ratio over Background
1,B1,1 fold
2,B2,1 fold
3,B3,0.8 fold
4,B4,1.8 fold
5,B5,1.1 fold
6,B6,1 fold
7,B7,1.3 fold
8,B8,1.9 fold
9,B9,0.8 fold
10,B10,1.8 fold
11,B11,1.4 fold
12,B12,1.3 fold
13,B13,1.7 fold
14,B14,1 fold
15,B15,0.6 fold
16,B16,0.7 fold
17,B17,1.1 fold

# Molecular target: T2, Soluble IGF-1R (R&D Systems, Cat. # 391-GR/CF); recombinant human IGF-1R (human, UniProt P08069 31-935)
# T2 construct: extracellular domain; Eu3+-labelled in the TR-FRET assays; also called sIGF-1R; rhIGF-1R
# Experiment: phage ELISA vs milk
row,Binder,Ratio over Background
1,B1,6.8 fold
2,B2,3.1 fold
3,B3,9.7 fold
4,B4,6.9 fold
5,B5,5.3 fold
6,B6,4.4 fold
7,B7,5.4 fold
8,B8,8.8 fold
9,B9,2.6 fold
10,B10,31 fold
11,B11,4.8 fold
12,B12,5.6 fold
13,B13,6.1 fold
14,B14,9.2 fold
15,B15,9.5 fold
16,B16,10.5 fold
17,B17,4.3 fold

# Molecular target: T2, Soluble IGF-1R (R&D Systems, Cat. # …)
# Experiment: phage ELISA, vs IR
row,Binder,IGF-1R/IR Comparison
1,B1,6.7 ratio
2,B2,3.1 ratio
3,B3,12.3 ratio
4,B4,3.9 ratio
5,B5,4.8 ratio
6,B6,4.4 ratio
7,B7,4.2 ratio
8,B8,4.6 ratio
9,B9,3.3 ratio
10,B10,17 ratio
11,B11,3.4 ratio
12,B12,4.3 ratio
13,B13,3.6 ratio
14,B14,9.4 ratio
15,B15,16 ratio
16,B16,14.6 ratio
17,B17,3.9 ratio

# Molecular target: T1, Insulin receptor prepared according to …
# Experiment: phage ELISA, vs IGF-1R
row,Binder,IR/IGF-1R Comparison
1,B1,0.1 ratio
2,B2,0.3 ratio
3,B3,0.1 ratio
4,B4,0.3 ratio
5,B5,0.2 ratio
6,B6,0.2 ratio
7,B7,0.2 ratio
8,B8,0.2 ratio
9,B9,0.3 ratio
10,B10,0.1 ratio
11,B11,0.3 ratio
12,B12,0.2 ratio
13,B13,0.3 ratio
14,B14,0.1 ratio
15,B15,0.1 ratio
16,B16,0.1 ratio
17,B17,0.3 ratio

# Molecular target: human insulin receptor (HIR) (human, UniProt P06213 28-1382, limits assumed)
# Experiment: HIR Kd, Table 14; competition with 125I-insulin on solubilised HIR (method of Example 3, not restated for this table)
row,Binder,Kd
1,B18,0.38 nM
2,B19,0.017 nM
3,B20,55 nM
4,B21,8300 nM
5,B22,6000 nM
6,B23,0.7 nM
7,B24,0.3 nM
8,B25,2000 nM
9,B26,150 nM
10,B27,~100 nM
11,B28,25 nM
12,B29,410 nM
13,B30,0.059 nM
14,B31,210 nM
15,B32,44 nM
16,B33,960 nM
17,B34,94 nM
18,B35,1 nM
19,B36,~100 nM
